According to the Human Domainome abundance scans (Beltran et al. 2025):

B1: Proto-oncogene vav, residues 782 to 842; numbered along this chain, P15498 (parent)
chain: KYFGTAKARYDFCARDRSELSLKEGDIIKILNKKGQQGWWRGEIYGRVGWFPANYVEEDYS

Variants of: B1
Test: abundance fitness (aPCA) (normalised: wild type 0, dead -1); higher = more abundant; growth selection in yeast, the domain comes from the species named
Conditions: Homo sapiens

Abundance fitness, by site and new letter:
N32: Q 0.009 | R -0.255 | G -0.075 | E 0.123 | V -0.223 | M -0.242 | A -0.031 | L -0.292 | H -0.02 | D 0.162 | I -0.363 | Y -0.168 | K -0.221 | T -0.131 | F -0.118 | S 0.082
S21: Y -0.513 | L -0.653 | F -0.607 | A -0.26 | Q -0.594 | E -0.049 | G -0.34 | H -0.243 | D 0.153 | I -0.378 | R -0.742 | P -0.36 | T -0.265 | V -0.895 | C -0.445 | K -0.627 | N -0.333
L22: M -0.13 | P -0.971 | C -0.405 | A -0.494 | Q -1.07 | S -0.852 | I 0.016 | H -0.456 | V -0.332 | W -0.888 | K -0.857 | R -0.791 | N -0.91 | F 0.176
D26: K -0.964 | V -0.559 | I -0.663 | W -0.8 | A -0.493 | E -0.172 | G -0.948 | Y -0.472 | N -0.45 | L -0.814 | P -1.15 | H -0.941 | C -0.737 | R -0.996 | T -0.777 | M -0.401 | Q -0.278
I30: A -0.552 | Y -0.74 | R -0.634 | Q -0.833 | W -0.871 | F -0.776 | E -0.876 | N -0.77 | M -0.555 | V 0.006 | S -0.662 | G -0.675 | L -0.319 | P -0.814
R17: A 0.056 | M -0.06 | K 0.065 | N 0.061 | W -0.223 | E -0.027 | H -0.076 | T -0.027 | G -0.012 | F -0.315 | L 0.035 | C 0.1 | Y 0.107 | Q -0.044 | P 0.031 | D -0.046 | V -0.014
K23: T -0.237 | Y -0.232 | A -0.222 | P -0.907 | M -0.207 | S -0.168 | L -0.585 | Q -0.221 | I -0.524 | E -0.613 | N -0.576 | F -0.585 | H -0.142 | G -0.815 | W -0.816
K34: M -0.22 | C -0.117 | Q 0.031 | E 0.068 | H -0.03 | P -0.165 | N 0.068 | L -0.268 | F -0.363 | A -0.013 | I -0.424 | D -0.054 | G -0.051
K33: G -0.734 | F -0.593 | D -0.743 | H -0.68 | N -0.681 | A -0.711 | Y -0.475 | W -0.693 | S -0.576 | R -0.089 | V -0.41 | L -0.929 | Q -0.478 | E -0.46 | I -0.44 | T -0.377 | P -0.41 | C -0.732 | M -0.804
R15: S -0.386 | Q -0.26 | F -0.78 | K -0.169 | D -0.466 | G -0.316 | N -0.411 | M -0.507 | Y -0.414 | P -0.925 | T -0.181 | A -0.418 | V -0.471 | C -0.444 | H -0.293
S18: H -0.096 | C -0.364 | V -0.599 | G -0.194 | R -0.156 | P -0.794 | W -0.258 | D -0.169 | M -0.271 | E -0.277 | Y -0.158 | Q -0.451 | N 0.024 | A 0.064 | L -0.368 | T -0.068 | K -0.239
I28: M -0.593 | F -0.816 | P -0.811 | C -0.436 | Q -0.834 | D -0.944 | L -0.412 | G -0.935 | R -1.11 | S -0.792 | W -0.591 | V 0.039 | T -0.315 | A -0.662
A14: Q -0.541 | T -0.54 | P -0.355 | N -0.742 | K -0.692 | W -0.649 | Y -0.328 | V -0.889 | S -0.237 | L -1.03 | M -0.931
K29: M -0.095 | V -0.376 | G -0.281 | D -0.229 | E -0.493 | I -0.391 | H -0.082 | F -0.483 | Y -0.217 | N -0.033 | Q -0.265 | T -0.103 | C -0.467 | L -0.068 | W -0.4 | A -0.225 | P -0.462 | S -0.092
L20: M -0.756 | E -0.852 | F -0.937 | N -0.691 | I -0.342 | Q -1.05 | S -0.825 | K -0.673 | Y -0.64 | T -0.642 | A -0.768 | W -0.919 | V -0.577 | R -0.883 | C -0.966 | G -0.927
E19: G -0.678 | V -0.922 | Q -0.103 | W -0.445 | M 0 | Y -0.763 | C -0.502 | A -1 | K -0.885 | R -1.08 | T -0.838 | H -0.137 | F -0.657 | D -0.654 | L -0.593 | S -0.417
E24: Y -0.231 | D -0.361 | C -0.091 | W -0.92 | K -0.01 | L -0.809 | M -0.009 | Q -0.072 | H -0.13 | S -0.056 | F -0.575 | P -0.111 | A 0.082 | G -0.262 | V 0.045 | T -0.01 | N -0.118 | I -0.124 | R 0.068
L31: G -0.773 | I -0.004 | A -0.816 | D -0.415 | V -0.285 | M -0.366 | S -0.618 | R -0.461 | E -0.644 | H -0.285 | P -0.988 | K -0.392 | F -0.46 | Y -0.188 | C -0.412 | Q -0.525 | N -0.649 | T -0.133 | W -0.251
G25: C -0.895 | P -0.615 | Q -0.957 | Y -1.02 | S -0.818 | N -0.675 | A -0.721 | D -0.518 | H -0.975 | T -0.97 | F -0.786 | W -0.498 | V -1.21 | M -0.742 | L -0.904 | R -0.667
D16: R -0.112 | K -0.174 | P -0.839 | H 0.022 | T -0.135 | L -0.418 | W -0.617 | M -0.499 | F -0.618 | S 0 | E -0.225 | Y -0.445 | V -0.308 | Q -0.108 | G -0.11
I27: S -0.276 | K -0.22 | V 0.065 | D -0.151 | A -0.331 | F -0.44 | W -0.324 | L -0.198 | Y -0.294 | G -0.704 | E -0.154 | C -0.194 | H -0.14 | R -0.21 | M -0.192 | P -0.557
